Experimental findings from PMC5087439, “One Step Assembly of Thin Films of Carbon Nanotubes on Screen Printed Interface for Electrochemical Aptasensing of Breast Cancer Biomarker” are described below.

This data set deals with MUC1 (mucine) (UniProt P15941 24-1097). As to the kind of experiment: electrochemical impedance spectroscopy (aptamer immobilized on electrode); 2 mM [Fe(CN)6]4-/3- redox probe; 1 mM Mg2+; observed (apparent) Kd, stated as about 0.1 U/mL; Binding buffer pH 7.4: 1 mM MgCl2, 140 mM NaCl, 2.7 mM KCl, 0.1 mM Na2HPO4, 1.8 mM KH2PO4; 45 min incubation; temperature not stated.
Sequence of MUC1 (mucine) (P15941 24-1097): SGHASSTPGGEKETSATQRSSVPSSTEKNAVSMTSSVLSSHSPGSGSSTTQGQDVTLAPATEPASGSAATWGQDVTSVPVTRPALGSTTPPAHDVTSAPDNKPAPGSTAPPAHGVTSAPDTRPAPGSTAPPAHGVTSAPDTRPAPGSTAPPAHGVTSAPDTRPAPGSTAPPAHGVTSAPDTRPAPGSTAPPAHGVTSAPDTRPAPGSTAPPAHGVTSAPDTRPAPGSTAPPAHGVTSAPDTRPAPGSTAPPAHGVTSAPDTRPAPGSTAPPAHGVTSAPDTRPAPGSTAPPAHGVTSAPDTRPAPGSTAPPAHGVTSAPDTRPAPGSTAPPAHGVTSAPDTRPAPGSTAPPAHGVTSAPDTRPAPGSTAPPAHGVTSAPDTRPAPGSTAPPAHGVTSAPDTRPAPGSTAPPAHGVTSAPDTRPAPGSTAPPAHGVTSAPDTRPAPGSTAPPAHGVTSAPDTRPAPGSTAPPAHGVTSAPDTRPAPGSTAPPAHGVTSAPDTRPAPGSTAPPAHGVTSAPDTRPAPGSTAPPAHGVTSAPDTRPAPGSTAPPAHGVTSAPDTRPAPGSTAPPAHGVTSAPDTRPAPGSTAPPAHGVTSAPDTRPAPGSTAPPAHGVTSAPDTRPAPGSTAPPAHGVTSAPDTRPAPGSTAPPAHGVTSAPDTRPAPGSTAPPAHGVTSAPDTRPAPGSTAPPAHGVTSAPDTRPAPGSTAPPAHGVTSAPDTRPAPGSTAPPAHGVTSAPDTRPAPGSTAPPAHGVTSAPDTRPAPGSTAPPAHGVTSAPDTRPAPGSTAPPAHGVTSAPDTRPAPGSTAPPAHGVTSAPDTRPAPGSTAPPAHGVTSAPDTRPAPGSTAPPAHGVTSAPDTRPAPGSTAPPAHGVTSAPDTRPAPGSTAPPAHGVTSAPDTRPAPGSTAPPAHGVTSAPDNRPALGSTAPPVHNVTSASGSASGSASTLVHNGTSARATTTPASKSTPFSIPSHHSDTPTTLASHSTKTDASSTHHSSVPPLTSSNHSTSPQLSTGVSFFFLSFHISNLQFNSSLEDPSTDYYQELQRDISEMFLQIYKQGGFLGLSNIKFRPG

B1: MUC1 aptamer (ssDNA)
DNA: GCAGTTGATCCTTTGGATACCCTGG
modifications: 3'-NH2
Regarding B1, the Kd was determined as 630 nM.
